Test results reported in patent US20100120681A1 (Ablynx, published 2010).

Assays:
hVEGF165 (R&D Systems) = biological target: T1, hVEGF165 (R&D Systems) (human, UniProt P15692 27-191); experiment: SPR Biacore 3000, periplasmic extract over VEGF165-coated CM5 chip
T1 construct: mature; also called biotinylated hVEGF165
Procedure: (§1) Analysis of the results was done using BIAevaluation software. Off-rates were determined by the ‘fit kinetics separate ka/kd’ model, langmuir dissociation. A time interval of ±100s was used for the fitting.

[1] = biological target: T2, E. coli expressed VEGF109 (human, UniProt P15692 207-315); experiment: SPR Biacore 3000, periplasmic extract over VEGF109-coated CM5 chip
T2 construct: also called hVEGF109
T2 sequence: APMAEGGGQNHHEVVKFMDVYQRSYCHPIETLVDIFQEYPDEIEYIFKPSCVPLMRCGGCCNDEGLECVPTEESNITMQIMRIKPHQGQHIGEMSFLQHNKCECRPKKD
Procedure: as §1

T1 sequence (P15692 other isoform, or with tags, fused parts or gaps): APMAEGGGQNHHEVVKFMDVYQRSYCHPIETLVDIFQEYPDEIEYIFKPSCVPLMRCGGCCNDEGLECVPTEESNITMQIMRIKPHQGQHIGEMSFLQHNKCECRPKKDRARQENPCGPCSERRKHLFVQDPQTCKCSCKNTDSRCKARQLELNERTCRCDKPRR

Binder	koff (hVEGF165 (R&D Systems))	koff [1]
PVEGFPMP42B10 (VHH, tested as periplasmic extract; not shown: C-terminal c-myc tag and (His)6 tag from the vector) VHH: EVQLVESGGGLVQAGGSLRLSCTASGRALDTYTVTWFRQTPGKEREFVASNRWNAKPYTTDSVKGRFTISRDNAKNTVYLQMNSLKPEDTAVYYCAADLTTWADGPYRYWGQGTQVTVSS	0.000362 s⁻¹	0.000227 s⁻¹
PVEGFPMP42C5 (VHH, tested as periplasmic extract; not shown: C-terminal c-myc tag and (His)6 tag from the vector) VHH: KVQLVESGGGLVQAGGSLRLSCAASGRALDTYTVTWFRQTPGKEREFVASIRWNAKPYTTDSVKGRFTISRDNAKNTVYLQMNSLKPEDTAIYYCAADLTTWADGPYRYWGQGTQVTVSS	0.000641 s⁻¹	0.000448 s⁻¹
PVEGFPMP42E3 (VHH, tested as periplasmic extract; not shown: C-terminal c-myc tag and (His)6 tag from the vector) VHH: EVQLVESGGGLVQAGGALRLSCAASGRTFETYRMGWFRQAPGKEREFVALINWSSGTTIYADSVKGRFTISGDNAKDTVYLEMNSLKPEDTAVYYCAVGRRWSGSYYSALAYQYWGQGTQVTVSS	0.0015 s⁻¹	0.000689 s⁻¹
PVEGFPMP42C7 (VHH, tested as periplasmic extract; not shown: C-terminal c-myc tag and (His)6 tag from the vector) VHH: EVQLVESGGGLVQAGGALRLSCAASGRTFETYRMGWFRQAPGKEREFVALINWSSGTTIYADSVKGRFTISGDNAKDTVYLEMNSLKPEDTAVYYCAVGRRWSGSYYSALAYQYWGKGTQVTVSS	0.00151 s⁻¹	0.00061 s⁻¹
PVEGFPMP42C10 (VHH, tested as periplasmic extract; not shown: C-terminal c-myc tag and (His)6 tag from the vector) VHH: EVQLVESGGGLVQAGGALRLSCAVSGRTFESYRMGWFRQAPGKEREFVSLINWSSGKTIYADSVKGRFTISGDNAKDTVYLEMNSLKPEDTAVYYCAVGRAWSGSYYSALAYQYWGQGTQVTVSS	0.0168 s⁻¹	0.00753 s⁻¹
PVEGFPMP42D5 (VHH, tested as periplasmic extract; not shown: C-terminal c-myc tag and (His)6 tag from the vector) VHH: EVQLVESGGGLVHAGGALRLSCAASGRAFETYRMGWFRQAPGKEREFVALINWSSGTTVYADSVKGRFTISGDNAKDTVYLEMNSLKPEDTAVYYCAVGRRWSGSYYSALAYQYWGQGTQVTVSS	0.00147 s⁻¹	0.000368 s⁻¹
PVEGFPMP42D7 (VHH, tested as periplasmic extract; not shown: C-terminal c-myc tag and (His)6 tag from the vector) VHH: EVQLVESGGGLVQAGGALRPSCAASGRTFETYRMGWFRQAPGKEREFVALINWSSGTTVYADSVKGRFTISGDNAKDTVYLEMNSLKPEDTAVYYCAVGRRWSGSYYSALAYQYWGQGTQVTVSS	0.00094 s⁻¹	0.000176 s⁻¹
PVEGFPMP42A5 (VHH, tested as periplasmic extract; not shown: C-terminal c-myc tag and (His)6 tag from the vector) VHH: EVQLVESGGGLVQAGGSLRLSCAASGRTFSGVDVAWFRQAPGKEREFVAALAWSGIRTYYAVSVKGRFTISRGDPNDTVYLQMTSLKPEDTAVYYCATGRASRTSDYYTDRIYDSWGQGAQVTVSS	0.00154 s⁻¹	0.00167 s⁻¹
PVEGFPMP42A3 (VHH, tested as periplasmic extract; not shown: C-terminal c-myc tag and (His)6 tag from the vector) VHH: EVPMVESGGGLVQAGGSLRLSCAASGRTFSGVDVAWFRQAPGKEREFVAALAWSGIRTYYAVSVKGRFTISRGDPNDTVYLQMTSLKPEDTAVYYCATGRASRTSDYYTDRIYDSWGQGAQVTVSS	0.00259 s⁻¹	0.00284 s⁻¹
PVEGFPMP42C1 (VHH, tested as periplasmic extract; not shown: C-terminal c-myc tag and (His)6 tag from the vector) VHH: EVQLVESGGGLVQAGGSLRLSCAASGRTFSGVDVAWFRQAPGKEREFVAALAWSGIRTYYAVSVKGRFTISRGNPNDTVYLQMTSLKPEDTAVYYCATGRAYRGSDYYTDRIYDSWGQGAQVTVSS	0.00835 s⁻¹	0.00825 s⁻¹

More lines, now with the values ahead:

koff (hVEGF165 (R&D Systems))	koff [1]	Binder
0.000311 s⁻¹	0.000134 s⁻¹	PVEGFPMP42E2 (VHH, tested as periplasmic extract; not shown: C-terminal c-myc tag and (His)6 tag from the vector) VHH: EVQLVESGGGLVQAGGSLRLSCAASGRALDTYTVTWFRQTPGKGREFLASIRWNAKPYTTDSVKGRFTMSRDNAKNTVYLQMNSLRPEDTAVYYCAADPTTWADGPYRYWGQGTQVTVSS
0.000501 s⁻¹	0.000278 s⁻¹	PVEGFPMP42F1 (VHH, tested as periplasmic extract; not shown: C-terminal c-myc tag and (His)6 tag from the vector) VHH: EVQLVESGGGLVQPGGSLRLSCAASGRALDTYTVTWFRQTPGKTREFVASVRWNAKPYTTDSVKGRFTISRDNAKNTVYLQMNSLKPEDTAVYYCAADPTTWADGPYRYWGQGTQVTVSS
0.000447 s⁻¹	0.000251 s⁻¹	PVEGFPMP42G5 (VHH, tested as periplasmic extract; not shown: C-terminal c-myc tag and (His)6 tag from the vector) VHH: EVHLVESGGGLVQAGGSLRLSCAASGRALDTYTVTWFRQTPGKTREFVASVRWNAKPYTTDSVKGRFTISRDNAKNTVYLQMNSLKPEDTAVYYCAADPTTWADGPYRYWGQGTQVTVSS
0.000528 s⁻¹	0.000315 s⁻¹	PVEGFPMP42H5 (VHH, tested as periplasmic extract; not shown: C-terminal c-myc tag and (His)6 tag from the vector) VHH: EVQLVESGGGLVQAGGSLRLSCTASGRALDTYTVTWFRQTPGKEREFVASNRWNAKPYVTDSVKGRFTISRDNAKNTVYLQMNSLKPEDTAVYYCAADLTTWADGPYRYWGQGTQVTVSS
0.00634 s⁻¹	0.00411 s⁻¹	PVEGFPMP42D10 (VHH, tested as periplasmic extract; not shown: C-terminal c-myc tag and (His)6 tag from the vector) VHH: EVQLVESGGGLVQAGGALRLSCAASGRTFETYRMGWFRQAPGKEREFVALINWSSGITVYLDSVKGRFTISGDNAKDTVYLEMNSLKPEDTAVYYCAVGRAWSGSYYSALAYQYWGQGTQVTVSS
0.02 s⁻¹	0.00774 s⁻¹	PVEGFPMP42E4 (VHH, tested as periplasmic extract; not shown: C-terminal c-myc tag and (His)6 tag from the vector) VHH: EVQLMESGGGLVQAGGSLRLSCAVSGRTFESYRMGWFRQAPGKEREFVSLINWSSGKTIYADSVKGRFTISGDNAKDTVYLEMNSLKPEDTAVYYCAVGRAWSGSYYSALAYQYWGQGTQVTVSS
0.00149 s⁻¹	0.000315 s⁻¹	PVEGFPMP42H9 (VHH, tested as periplasmic extract; not shown: C-terminal c-myc tag and (His)6 tag from the vector) VHH: EVQLVESGGGLVQAGGALRLSCAASGRTFETYRMGWFRQAPGKEREFVALINWSSGTTVYADSVKGRFTISGDNAKDTVYLEMNSLKPEDTAVYYCAVGRRWSGSYYSALAYQYWGQGTQVTVSS
0.00165 s⁻¹	0.00176 s⁻¹	PVEGFPMP42F10 (VHH, tested as periplasmic extract; not shown: C-terminal c-myc tag and (His)6 tag from the vector) VHH: EVQLVESGGGLVQAGGSLRLSCAASGRTFSGVDVAWFRQATGKEREFVAALAWSGIRTYYAVSVKGRFTISRGDPNDTVYLQMTSLKPEDTAVYYCATGRASRTSDYYTDRIYDSWGQGAQVTVSS
